Measurements published in a protein production outcome set (Wang et al. 2014).

Assay: label from the status in PepcDB records
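Also: failed if final PepcDB status was selected cloned or expressed and not failed if soluble or beyond.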

**Q.** With “MAKFNQDLNEVLNQALNLALDLNHALCTTEHVLLVILEHESGEKIIGTLERDDYDKLKQILKDYLLQYVPLKSDPAKMPARSFVLLRMLKRMYASCFESVGVEELLILMLDHPDCYASKLMDSFGIARLYSNPALLDLDNHGIPNDINDNEEAPKNTPLKKYAKNLSALAQDNALDPVIGREEEILRVIEILGRRKKNNPLLIGEAGVGKTSIAEALALKIAQKEVPEFLQEYEVYSLDLALMVAGAKYRGDFEKRLKKTLKEIQQNGRIILFIDEIHTLLGTGSSNAGSLDAANILKPVLTDGSLKCLGATTFEEYRSVFEKDKAFNRRFSVIKVEEPSKEACYLILKKIAPLYEEHHQVRYDESVFKACVDLTSDYMHDKFLPDKAIELLDEVGSRKKISPKKGKKIGVDDVKETLALKLKIPKMRLSSDKKALLRNLEKSLKNKIFAQAEAISLVSNAIKIQHCGLSAKNKPVGSFLFVGPSGVGKTELAKELALNLNLHFERFDMSEYKEAHSVAKLIGSPSGYVGFEQGGLLVNAIKKHPHCLLLLDEIEKAHSNVYDLLLQVMDNATLSDNLGNQASFKHVILIMTSNVGSKDKDTLGFFSAKNTKYDKAVKELLTPELRSRIDAIVPFNALSLEDFERIVSVELDKLKALALEQDITLKFHKEVVKFIAQKSYQTTLGAREIKKIIHNEIKTKLSDILLLQSFKKPCKIACLLEKNQLVLKEIKRAQKVKENDF” as the sequence, how does the protein production read?
**A.** failed

**Q.** With “MAKGPLVSFQALVENARDLVYVLDAGGAIRYASPNVRQVLGYDPEGHTRETLYALDFVHPEDRTYAEAALEDLLRHPGKTREFRLRLLDAWGRVRAVRVWGRNLLEDPAVRGIIINVHDETELEAERA” as the sequence, how does the protein production read?
**A.** failed

**Q.** For “MAKILEGPAMKLFNKWGIPVPNYVVIMDPERLAQLGEANKWLRESKLVVKAHEAIGGRFKLGLVKLGLNLEEALEASREMIGRKIGTAVVRQVIVAEMLEHDEEYYVSIAGNRDGAELLLSTKGGVDIEDNWDTVKRLFIPMDETPSVERLTEVAAEAGFTGEVAERVAKIAARLILCFDNEDAQSIEINPLVIRKSDMRFAALDAVMNVDYDARFRHADWDFKPVSEIGRPYTEAEQQIMEIDARIKGSVKFVEVPGGEIALLTAGGGASVFYSDAVVARGGTIANYAEYSGDPPDWAVEALTETICRLPKIRHIIVGGAIANFTDVKATFSGIINGLRESRSKGYLQNVTIWVRRGGPNENQGLAAIRKLQDEGFDIHVYDRSMPMTDIVDLAMNS”, which protein production is on record?
**A.** failed

**Q.** For “MAKKRESPKLIKIKDAIKLINQQVSLIGIVLEQREPKQCRNNDWICTLRIIDDTYPSPGLTVNVFSKTLEQLPQIKNHDDMILFTRIKMQTFDSGERVNAACSRWVSSFALFEGVDFVCYQCSTNFHEEEALYKSAMDDLRKVFAGCSQVIKAMQSISYRTKPCSEVFSFLREIKIGKRFDLVCRILHADEDTSAVFVWDGTDAPPASILAKRSEEDKAFSSLSVHTLLSRDVLLSFPTVGTILRVHLSSHLFYRVKPGDWVKLYHLLCEVDRGSWVIKVTSSTKVHHLAQDDRLVEKIMRIYDKRLSSKLGHISFWCFPSPPGLTETDDNCAPFVTLMDIITFPKVTCKYRCIVRVVAAYPWQVEDFCSDENRRHHQVLLTLEDSTATLEAFLCNKDAEYFWGLGFQDTETLRKKRNWLLGIRESSNFVAPRNPPWIECCILSYYTNKADPWNTRLYRIFGTRLLH”, which protein production is on record?
**A.** failed

**Q.** For “MAKKTKAKAAKAARPKAAKTAVAKAKPAKRGVAARSVAAKPPKVAPGELVTLLDFVRYAVSRFAEAGVVFAHGTTDPIAEAVFLVGEALHLHPDQFEMFASARVTTREAAAILGLIERRIGSRLPAAYLVNKIYMRGVPFYVDERVIVPRSYIGELLDSHFDGGDTSLIDAPEAIERVLDLCTGSGCLAILAAYAFPNATVDAVDLSKDALAVATRNVAEHRLDDRVSLYHGDLFGPLGDERYDLIITNPPYVDADGMASLPAECRAEPAMAFDGGDDGLTIIRRILAEAKHHLNPDGGLLCEVGRCRPQIEDEFPQLPLLWLDSEDSEAEVFWIAAADL”, which protein production is on record?
**A.** failed

**Q.** With “MAKLAGQKVRIGGWVKTGRQQGKGTFAFLEVNDGSCPANLQVMVDSSLYDLSRLVATGTCVTVDGVLKIPPEGKGLKQSIELSVETVIAVGTVDP” as the sequence, how does the protein production read?
**A.** not failed

**Q.** For “MAKNAPRFVCQACGAVYPRWMGRCEACGEWNSIAEEAPAEALPKGQTGGRGGQRLSFVSLEGVGAPPPRLLTGIPELDRVAGGGLVAGSALLIGGDPGIGKSTLLLQAVAGLARGGARSVYISGEEAIDQVRLRALRLGLEKAPVDLAAATSVRDIVATLDSGEPPDVVVIDSIQTMYLDTLDSAPGTVAQVRAGSHELIRLAKRRGFVLFLVGHVTKEGQMAGPRVMEHMVDAVIYFEGERGHPFRILRAVKNRFGATDEIGVFEMSDAGLSEVPNPSALFLAERRGNVTGSCVFAGMEGTRPMLVEIQALVGPSAPGSARRAVVGWDGGRLAMVMAVLETRCGLALGGNDVYLNVAGGLRIGEPAADLAVAAALVSSFSGVPVPPDMVVFGEIGLSGEIRAVAHGDTRLKEAAKLGFDQALMPARPRDSGKRGGPGVKEGLRMREIGHLQDLVALLAPPENAGQGQRLEHHHHHH”, which protein production is on record?
**A.** not failed

**Q.** For “MAKNDRKEPYPVINILECKACGRCLLACPKDVLFMSENLNARGYHYIEYKGEGCSGCASCYYTCPEPLALEIHIPLKKEEAE”, which protein production is on record?
**A.** failed

**Q.** For “MAKNIQAIRGMNDYLPGETAIWQRIEGTLKNVLGSYGYSEIRLPIVEQTPLFKRAIGEVTDVVEKEMYTFEDRNGDSLTLRPEGTAGCVRAGIEHGLLYNQEQRLWYIGPMFRHERPQKGRYRQFHQLGCEVFGLQGPDIDAELIMLTARWWRALGISEHVTLELNSIGSLEARANYRDALVAFLEQHKEKLDEDCKRRMYTNPLRVLDSKNPEVQALLNDAPALGDYLDEESREHFAGLCKLLESAGIAYTVNQRLVRGLDYYNRTVFEWVTNSLGSQGTVCAGGRYDGLVEQLGGRATPAVGFAMGLERLVLLVQAVNPEFKADPVVDIYLVASGADTQSAAMALAERLRDELPGVKLMTNHGGGNFKKQFARADKWGARVAVVLGESEVANGTAVVKDLRSGEQTAVAQDSVAAHLRTLLG”, which protein production is on record?
**A.** not failed

**Q.** With “MAKPPTTIEVSPTITLPQQDPSLMGVTVSINGADQRTDQALAKVTRDNQIVTLTASRDLRFLLQEVLEKQMTARGYMVGPNGPVNLQIIVSQLYADVSQGNVRYNIATKADIAIIATAQNGNKMTKNYRASYNVEGAFQASNKNIADAVNSVLTDTIADMSQDTSIHEFIKQNARLEHHHHHH” as the sequence, how does the protein production read?
**A.** not failed

**Q.** With “MAKPVLVRNTEEMMMNLDFPTYIKVAELGCSSGQNSFLAIFEIINTINVLCQHVNKNSPEIDCCLNDLPENDFNTTFKFVPFFNKELMITNKSSCFVYGAPGSFYSRLFSRNSLHLIHSSYALHWLSKVPEKLENNKGNLYITSSSPQSAYKAYLNQFQKDFTMFLRLRSEEIVSNGRMVLTFIGRNTLNDPLYRDCCHFWTLLSNSLRDLVFEGLVSESKLDAFNMPFYDPNVQELKEVIQKEGSFEINELESHGFDLGHYYEEDDFEAGRNEANGIRAVSEPMLIAHFGEEIIDTLFDKYAYHVTQHANCRNKTTVSLVVSLTKK” as the sequence, how does the protein production read?
**A.** failed

**Q.** Which protein production does the source give for “MAKPVVETPLMRQYFQIKQKHPDAILLFRVGDFYETFSEDAIVASEILGITLTRRANGAAQFVELAGFPHHALDTYLPKLVRAGKRVAICDQLEDPKKTKTLVKRGITELVTPGVSTNDNVLSHKENNFLAAVSCGKEVFGISLLDISTGEFMAGQGNADYVEKLLTNYRPKEILVERSERSRFNDLFHWSGFIFDMEDWAFSSENNRLRVLKHFDLKSLKGFGLEELSMAVTAAGAVLNYLDLTQHHQLQHITSLSRLDENRYVRLDKFTVRSLELLSPMNEGGKSLLDIIDHTITPMGARRIRQWIVFPLKDPARIQARQRVVEFFFRHPEERAIIAEHLTEIGDLERLVTKGAMGRISPREMVQLRVALQALEPIKEVCTHADEENLRTLGGKLELCKELRDKILREVMPDAPAALGRGPVIAHGVDATLDELRALAYSGKDYLIKLQQQEIERTGIPSLKVAYNNVFGYYIEVRNTHKDKVPAEWIRKQTLVSAERYITEELKEYEAKILGAEEKIAALEGQLYALLVAELQRYVAPLQQDSQAVASLDCLLSFAESARRYRFICPVVDESFTIDIKAGRHPVIEQQLPADEPYIANDIYLDTDRQQVIIVTGPNMSGKSALLRQTALISLMAQIGSFVPAESARIGMVDSIFTRVGASDNISMGESTFMVEMQEASNILNNLTPRSLVLFDELGRGTSTYDGISIAWSIVEYIHDNPKAHPRTLFATHYHELNELEGQLDRVHNFNVSAREVDGKMLFLRKLEPGGSAHSFGIQVARLGGMPHHIVQRATDILHRLEQEREKIEEEEPKTKDTKRGPSEKVKNASPTLPRDEKGRSIDGYQLSFFQLDDPVLSQIREEILDLNIDNLTPLEALNKLNDIKRILRGY” here?
**A.** failed

**Q.** With “MAKSKKIVFTGGGTVGHVTLNLILIPKFLKDGWEVHYIGDKHGVEHEQIDKSGLDVTFHSIATGKLRRYFSWQNMLDVFKVGWGILQSIAIIAKIRPQALFSKGGFVSVPPVIASKLLRVPVYVHESDLSMGLANKIAYKFATTMFTTFEQSKTLVKTRHVGAITKVGMTRFDNSDQLDKIKEQFDEKLKTVLFIGGSAGAKVFN” as the sequence, how does the protein production read?
**A.** failed

**Q.** With “MAKSRLLLSELLDQLSFALCIVRNDYVIVKVNEYFESRVIFDGETMQGKNILELFPESADYLKRKIDTALVIESSSFSSWEQKPHLLPFKSSRPVSGEEEQMYQNLEVIPIHSEDGTIEHVCLCVYDVTIQASQQQ” as the sequence, how does the protein production read?
**A.** not failed

**Q.** With “MAKVSVYIIAYNEEQKIEPALQSVTWADEIVVIDSFSTDRTAEIARKYTDKVIQVPFEGFGKLRNSAIAATSHEWIFSLDTDERCTEEAKNEILAIIDSPDALDAYYVPRRNIFMGRWVKHSGWYPDYRQPQLFRRGAQVFTDEVVHESFTTIGRVGHMKNAIWQIPFRNFEQMISKIDRYSTLGAAKMTAKGVRPGMGKALFHALFAFFRMYILRLGILDGWAGFVIALYTFEGTFYRYAKQVEAARGWVMTRPEELER” as the sequence, how does the protein production read?
**A.** failed

**Q.** For “MAKVVKLEPISRETTVNTNDNLLSALLDSELHVLKECGGRGMCATCHVYIKEGMESLSPINKREQRTLEVITTANATSRLACQARVLGPGVVVELPSGMYVNAVEDIESLIGRRAEQDILHPLDGRVLVEAGKLITRTMITQLKDTQVQVGQYFANTSDALEHHHHHH”, which protein production is on record?
**A.** not failed

**Q.** For “MAKYFGTDGIRGEVANSTITVEFTQKLGNAVGSLINQKNYPKFVIVGQDTRSSGGFLKFALVSGLNAAGIDVLDLGVVPTPVVAFMTVKHRAAAGFVITASHNKFTDNGIKLFSSNGFKLDDALEEEVEDMIDGDFIYQPQFKFGSYKILANAIDEYIESIYSRFAKFVNYKGKVVVDCAHGAASHNFEALLDKFGINYVSIASNPDGLNINVGCGATCVSNIKKAVKEQKADLGISLDGDADRIIIVDENGQEIDGDGILNILAQYSDICGGTNGIVGTQMTNMSYENHYRANKIPFIRSKVGDRYVLEDLVKYGYKIGGESSGHVINLNFGTTGDGLFTAIQLLAIFSQADKPVSEFKLQGELMQQTLINVPLTKKVAREDLQKVASDVNDVEKRLGNRGRVLLRPSGTEPVLRVMVEADDKSLATNEAEYLVEKVKQKLV”, which protein production is on record?
**A.** not failed

**Q.** For “MAKYNEIAKKKREAKADRKRAIHGDPLTNKLKTRTPVPSVSGKRQRKLLRKWRREQKDMVEKGLVTMEDVEMASAQAASEDSKKSPRKFSVKKSLKLNKLNNKGKKKKNQKASGEKSADCMLE”, which protein production is on record?
**A.** failed

**Q.** Which protein production does the source give for “MALAMNRSITAITVTHNSAHTVRGALARLPPGVEIVCVDNASTDDLSTALSDLAVHRIDNPVNLGFGRACNIGAAAATGEYLLFINPDVRLGTDAVDALLQAAERYPNCGVFVPRTNTVDGRLWFREESEIDRLSGVSLPTRIRQVWGDCCVRFVNGGVFMIKRTLFLDTGGFDEDIFLYFEDDDLSYRLLQRDEPMILVSGAHAVHDIGTSVAQSTRSRIFRYRSKMRSEIHLRKKYGIAYSPFVDILRYSTKIGFYCLTLNRNRLINSLGRLIGIFDSILDRSRANRNGGYVALEHHHHHH” here?
**A.** not failed
